Reference: paper PMC4937304
Where “and” joins values, the source holds several entries; their conditions need not be identical. Equal values may be shown once.

Molecular target: Snf1 (wild type) (S. cerevisiae (endogenous in yeast)) (UniProt P06782)
Experiment: pull-down

Chain of UniProt P06782 (P06782 whole entry): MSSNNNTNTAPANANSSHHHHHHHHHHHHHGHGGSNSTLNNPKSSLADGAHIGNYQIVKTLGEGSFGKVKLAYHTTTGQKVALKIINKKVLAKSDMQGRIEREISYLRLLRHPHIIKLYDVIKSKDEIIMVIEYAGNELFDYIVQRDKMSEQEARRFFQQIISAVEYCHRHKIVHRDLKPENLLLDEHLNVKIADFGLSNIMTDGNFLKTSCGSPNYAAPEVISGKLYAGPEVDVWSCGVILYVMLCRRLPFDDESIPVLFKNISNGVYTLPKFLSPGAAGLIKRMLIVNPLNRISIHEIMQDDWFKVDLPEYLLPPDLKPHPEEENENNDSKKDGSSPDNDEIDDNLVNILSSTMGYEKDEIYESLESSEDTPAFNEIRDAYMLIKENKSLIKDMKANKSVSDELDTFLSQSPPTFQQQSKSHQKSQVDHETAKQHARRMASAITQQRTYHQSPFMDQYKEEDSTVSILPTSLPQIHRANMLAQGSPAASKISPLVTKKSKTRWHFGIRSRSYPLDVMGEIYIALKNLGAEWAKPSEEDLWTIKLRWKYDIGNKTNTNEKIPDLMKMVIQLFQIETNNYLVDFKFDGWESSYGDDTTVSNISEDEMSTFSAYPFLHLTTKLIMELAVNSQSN

percent of Snf1 bound to Bmh: 30% and 50%
Substance: Bmh (Bmh1 and Bmh2, collectively) (from UniProt P29311 1-267) (natural protein)
